Experimental data as given in patent US20090170751A1 (published 2009).

Tests used:
Assay in all cases: ELISA-type assay, F3 module coated
[1] = target: T1, Recombinant fibronectin module ^1F3 (Homo sapiens (Human), UniProt P02751 608-700)
T1 construct: Expressed with N-terminal His-tag, purified by Ni-NTA and ion-exchange chromatography; also called ^1F3 module

[2] = target: Recombinant fibronectin module ^3F3 (Homo sapiens (Human), UniProt P02751 810-900)
[3] = target: T2, Recombinant fibronectin modules ^1-2F3 (Homo sapiens (Human), UniProt P02751 608-809)
T2 construct: Expressed with N-terminal His-tag

Measured: binding result

Chain of Recombinant fibronectin module ^3F3 (P02751 other isoform, or with tags, fused parts or gaps limits assumed): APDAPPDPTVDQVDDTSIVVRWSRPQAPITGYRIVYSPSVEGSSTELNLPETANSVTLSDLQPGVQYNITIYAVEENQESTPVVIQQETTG
T2 sequence (P02751 608-809 limits assumed): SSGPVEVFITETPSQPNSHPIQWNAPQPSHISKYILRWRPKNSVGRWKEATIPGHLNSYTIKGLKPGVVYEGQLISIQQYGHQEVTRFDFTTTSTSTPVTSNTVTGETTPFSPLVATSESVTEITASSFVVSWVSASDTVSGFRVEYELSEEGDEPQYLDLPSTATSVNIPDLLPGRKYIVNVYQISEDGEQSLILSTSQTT
T1 sequence (P02751 608-700 limits assumed): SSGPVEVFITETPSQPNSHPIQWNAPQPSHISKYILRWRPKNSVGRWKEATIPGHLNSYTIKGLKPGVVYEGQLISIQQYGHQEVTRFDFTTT

B1: FnbpA peptide D3 (S. aureus fibronectin-binding peptide) (peptide)
peptide: GFNKHTEIIEEDTNKDKPSYQFGGHNSVDFEEDTLPK
notes: domain: D3; also called peptide D3 from FnbpA; D3 fragment of S. aureus FnbpA
no binding: all assays above
